Assay results reported in patent US20240390512A1 (Daiichi Sankyo, published 2024).

Experiments:
mouse CDH6, on cells = target: T1, mouse CDH6, on cells (mouse, UniProt P97326 54-790); assay: flow cytometry; 293α cells transfected with mCDH6; PE anti-human IgG Fc(gamma) goat F(ab')
T1 construct: also called mCDH6; NP_031692
T1 sequence: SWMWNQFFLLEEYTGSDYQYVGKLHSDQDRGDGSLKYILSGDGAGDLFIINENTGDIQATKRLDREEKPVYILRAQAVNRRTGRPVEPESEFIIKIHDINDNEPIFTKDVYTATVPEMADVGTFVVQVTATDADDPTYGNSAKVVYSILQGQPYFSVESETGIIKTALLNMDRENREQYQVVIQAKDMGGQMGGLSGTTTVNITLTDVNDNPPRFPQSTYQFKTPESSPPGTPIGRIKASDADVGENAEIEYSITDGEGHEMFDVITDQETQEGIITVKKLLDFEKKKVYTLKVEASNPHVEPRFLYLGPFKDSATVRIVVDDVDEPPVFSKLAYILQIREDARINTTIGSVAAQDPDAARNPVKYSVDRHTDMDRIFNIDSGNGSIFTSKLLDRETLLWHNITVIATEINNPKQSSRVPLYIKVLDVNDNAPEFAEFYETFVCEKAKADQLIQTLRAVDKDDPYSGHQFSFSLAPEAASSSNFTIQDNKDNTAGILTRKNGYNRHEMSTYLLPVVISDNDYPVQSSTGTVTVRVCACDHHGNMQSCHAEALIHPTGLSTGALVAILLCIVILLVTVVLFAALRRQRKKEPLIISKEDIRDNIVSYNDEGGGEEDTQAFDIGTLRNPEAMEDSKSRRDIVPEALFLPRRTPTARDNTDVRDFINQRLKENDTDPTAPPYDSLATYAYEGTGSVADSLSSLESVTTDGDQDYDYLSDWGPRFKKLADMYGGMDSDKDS

rat CDH6, on cells = target: T2, rat CDH6, on cells (rat, UniProt P55280 54-789); assay: flow cytometry; 293α cells transfected with rCDH6; PE anti-human IgG Fc(gamma) goat F(ab')
T2 construct: also called rCDH6; NP_037059
T2 sequence: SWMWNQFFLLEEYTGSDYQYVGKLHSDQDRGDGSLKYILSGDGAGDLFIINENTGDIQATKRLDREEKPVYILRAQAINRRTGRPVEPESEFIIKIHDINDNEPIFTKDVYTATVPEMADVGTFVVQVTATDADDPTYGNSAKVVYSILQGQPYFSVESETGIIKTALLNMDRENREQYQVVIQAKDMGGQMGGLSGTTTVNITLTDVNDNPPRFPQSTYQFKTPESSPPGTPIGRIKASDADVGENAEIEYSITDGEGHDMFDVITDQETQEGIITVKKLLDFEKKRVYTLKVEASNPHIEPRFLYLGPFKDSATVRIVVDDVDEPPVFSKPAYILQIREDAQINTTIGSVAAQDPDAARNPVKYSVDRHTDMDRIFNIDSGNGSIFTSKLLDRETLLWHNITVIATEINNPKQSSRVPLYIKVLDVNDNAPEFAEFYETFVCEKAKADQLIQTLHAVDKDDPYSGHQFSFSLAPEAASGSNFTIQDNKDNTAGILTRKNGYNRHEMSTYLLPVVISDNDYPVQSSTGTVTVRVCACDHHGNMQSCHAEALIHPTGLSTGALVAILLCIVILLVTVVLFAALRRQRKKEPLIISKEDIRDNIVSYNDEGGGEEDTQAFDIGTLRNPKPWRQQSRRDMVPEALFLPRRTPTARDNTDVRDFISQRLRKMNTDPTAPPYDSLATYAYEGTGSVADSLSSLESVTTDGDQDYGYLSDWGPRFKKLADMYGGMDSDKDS

[1] = target: T3, Recombinant Human CDH6 Fc His chimera (R&D Systems, Inc.) (human, UniProt P55285 54-615); assay: SPR (Biacore T200); antigen captured by immobilized anti-His antibody, antibody as analyte 0.391 to 100 nM; steady state affinity model
T3 construct: Bought reagent; also called the antigen; human CDH6 antigen; Fc part of the bought chimera not given; His tag of the bought chimera
T3 sequence: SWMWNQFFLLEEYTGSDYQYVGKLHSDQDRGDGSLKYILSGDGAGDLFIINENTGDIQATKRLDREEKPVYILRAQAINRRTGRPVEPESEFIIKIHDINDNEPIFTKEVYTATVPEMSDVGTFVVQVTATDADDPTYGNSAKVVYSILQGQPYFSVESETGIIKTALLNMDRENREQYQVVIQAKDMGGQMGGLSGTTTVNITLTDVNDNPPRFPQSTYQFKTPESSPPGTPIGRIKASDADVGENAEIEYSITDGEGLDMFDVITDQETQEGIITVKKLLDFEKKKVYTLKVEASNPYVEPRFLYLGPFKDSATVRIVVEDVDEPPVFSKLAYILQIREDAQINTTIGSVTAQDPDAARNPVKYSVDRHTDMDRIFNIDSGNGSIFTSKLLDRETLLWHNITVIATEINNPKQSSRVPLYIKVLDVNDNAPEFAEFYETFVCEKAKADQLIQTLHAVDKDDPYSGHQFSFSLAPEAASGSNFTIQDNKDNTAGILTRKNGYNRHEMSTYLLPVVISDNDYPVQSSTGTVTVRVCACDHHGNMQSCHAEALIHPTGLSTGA

[2] = target: T4, EC3 deletion mutant of human CDH6, on cells (human, UniProt P55285 54-790); assay: flow cytometry; 293α cells transfected with EC3-deleted hCDH6 (open line) against untransfected 293α cells (shaded); APC anti-human IgG goat F(ab')2; antibody concentration not given
T4 construct: in p3×FLAG-CMV-9; also called EC3-deleted hCDH6
T4 sequence: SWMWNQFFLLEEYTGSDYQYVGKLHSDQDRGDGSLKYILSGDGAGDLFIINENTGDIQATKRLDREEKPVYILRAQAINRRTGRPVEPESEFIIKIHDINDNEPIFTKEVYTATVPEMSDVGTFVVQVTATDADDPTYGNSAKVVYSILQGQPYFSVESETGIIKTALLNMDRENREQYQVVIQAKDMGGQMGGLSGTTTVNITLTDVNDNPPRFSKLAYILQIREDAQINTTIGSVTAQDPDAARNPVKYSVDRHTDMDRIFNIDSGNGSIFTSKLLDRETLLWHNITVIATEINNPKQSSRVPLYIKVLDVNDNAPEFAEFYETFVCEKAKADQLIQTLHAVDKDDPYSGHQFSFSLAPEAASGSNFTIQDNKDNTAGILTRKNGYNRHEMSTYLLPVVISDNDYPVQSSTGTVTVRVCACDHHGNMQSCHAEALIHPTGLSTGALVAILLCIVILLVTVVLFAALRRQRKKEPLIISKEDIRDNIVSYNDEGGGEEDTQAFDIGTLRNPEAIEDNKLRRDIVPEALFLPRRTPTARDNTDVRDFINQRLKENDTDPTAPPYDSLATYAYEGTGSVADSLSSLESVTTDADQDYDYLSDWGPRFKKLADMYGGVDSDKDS

[3] = target: T5, human CDH6 (cadherin-6), full-length, on cells (human, UniProt P55285 54-790); assay: flow cytometry; 293α cells transfected with pcDNA3.1-hCDH6; PE anti-human IgG Fcγ F(ab')2
T5 construct: also called hCDH6; full-length hCDH6
T5 sequence: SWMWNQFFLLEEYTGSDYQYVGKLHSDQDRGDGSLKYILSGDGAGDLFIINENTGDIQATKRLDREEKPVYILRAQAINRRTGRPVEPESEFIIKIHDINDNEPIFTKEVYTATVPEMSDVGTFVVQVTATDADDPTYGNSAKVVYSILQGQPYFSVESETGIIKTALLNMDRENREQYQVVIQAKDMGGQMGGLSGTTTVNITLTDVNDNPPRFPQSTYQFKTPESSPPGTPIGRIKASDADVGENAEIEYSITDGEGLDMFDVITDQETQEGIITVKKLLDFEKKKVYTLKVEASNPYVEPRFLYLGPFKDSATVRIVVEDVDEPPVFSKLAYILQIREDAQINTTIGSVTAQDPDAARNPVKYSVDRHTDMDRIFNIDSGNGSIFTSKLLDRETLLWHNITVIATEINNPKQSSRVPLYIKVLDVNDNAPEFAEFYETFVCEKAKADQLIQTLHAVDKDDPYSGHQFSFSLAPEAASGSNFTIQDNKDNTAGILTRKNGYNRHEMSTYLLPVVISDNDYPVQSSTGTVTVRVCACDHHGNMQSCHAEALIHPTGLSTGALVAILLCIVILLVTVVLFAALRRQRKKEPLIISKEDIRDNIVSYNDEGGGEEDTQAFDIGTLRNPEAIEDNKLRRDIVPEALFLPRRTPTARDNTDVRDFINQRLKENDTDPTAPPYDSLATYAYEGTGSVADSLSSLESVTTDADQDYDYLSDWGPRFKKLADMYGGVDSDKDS

[4] = target: T6, cynomolgus monkey CDH6, on cells (cynomolgus monkey, UniProt P55285 54-790 (human entry)); assay: flow cytometry; 293α cells transfected with pcDNA3.1-cynoCDH6; PE anti-human IgG Fcγ F(ab')2
T6 construct: Expressed from pcDNA3.1-cynoCDH6; also called cynoCDH6
T6 sequence: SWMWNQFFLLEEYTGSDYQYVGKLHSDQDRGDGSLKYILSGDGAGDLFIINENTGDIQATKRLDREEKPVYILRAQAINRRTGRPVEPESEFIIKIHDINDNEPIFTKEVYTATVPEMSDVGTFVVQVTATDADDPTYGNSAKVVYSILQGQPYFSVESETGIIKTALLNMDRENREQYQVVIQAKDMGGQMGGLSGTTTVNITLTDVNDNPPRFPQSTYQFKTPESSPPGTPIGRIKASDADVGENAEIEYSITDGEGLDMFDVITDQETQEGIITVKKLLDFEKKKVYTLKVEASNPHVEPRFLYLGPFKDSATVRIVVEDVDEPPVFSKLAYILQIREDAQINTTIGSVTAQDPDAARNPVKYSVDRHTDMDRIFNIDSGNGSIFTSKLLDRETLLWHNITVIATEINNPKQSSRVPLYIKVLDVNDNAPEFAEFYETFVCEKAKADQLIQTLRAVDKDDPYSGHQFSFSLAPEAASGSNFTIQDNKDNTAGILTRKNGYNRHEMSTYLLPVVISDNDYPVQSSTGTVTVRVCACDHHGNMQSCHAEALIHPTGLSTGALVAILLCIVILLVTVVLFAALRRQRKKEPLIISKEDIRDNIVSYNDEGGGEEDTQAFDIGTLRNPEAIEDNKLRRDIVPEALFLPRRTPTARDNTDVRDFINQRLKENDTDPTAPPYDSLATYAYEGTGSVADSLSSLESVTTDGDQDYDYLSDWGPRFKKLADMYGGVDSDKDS

Row | Binder | binding result (mouse CDH6, on cells) | binding result (rat CDH6, on cells) | Kd [1] [nM] | binding result [2] | EC50 (read off the curve) [3] [µg/mL] | EC50 (read off the curve) [4] [µg/mL]
1 | humanized anti-CDH6 antibody H02L02 (antibody, human IgG1, kappa, V domains shown, hH02 heavy chain and hL02 light chain, human IgG1 / kappa; also called H02L02 antibody) VH: EVQLVQSGAEVKKPGASVKVSCKASGYTFTRNFMHWVRQAPGQGLEWMGWIYPGDGETEYNQKFQGRVTITADRSTSTAYMELSSLRSEDTAVYFCARGVYGGFAGGYFDFWGQGTLVTVSS VL: DIQMTQSPSSLSASVGDRVTITCKASQNIYKNLAWYQQKPGKAPKLLIYDANTLQTGVPSRFSGSGSGSDFTLTISSLQPEDFATYFCQQYYSGWAFGQGTKVEIKR | no binding (tested: about 4, unit not printed on the axis) | no binding (tested: about 4, unit not printed on the axis) | 1.1 | no binding | – | –
2 | humanized anti-CDH6 antibody H02L03 (antibody, human IgG1, kappa, V domains shown, hH02 heavy chain and hL03 light chain, human IgG1 / kappa; also called H02L03 antibody) VH: EVQLVQSGAEVKKPGASVKVSCKASGYTFTRNFMHWVRQAPGQGLEWMGWIYPGDGETEYNQKFQGRVTITADRSTSTAYMELSSLRSEDTAVYFCARGVYGGFAGGYFDFWGQGTLVTVSS VL: DIQMTQSPSSLSASVGDRVTITCKASQNIYKNLAWYQQKLGEGPKLLIYDANTLQTGVPSRFSGSGSGTDFTLTISSLQPEDFATYYCQQYYSGWAFGQGTKVEIKR | no binding (tested: about 4, unit not printed on the axis) | no binding (tested: about 4, unit not printed on the axis) | 1.4 | no binding | – | –
3 | humanized anti-CDH6 antibody H01L02 (antibody, human IgG1, kappa, V domains shown, hH01 heavy chain and hL02 light chain, human IgG1 / kappa; also called H01L02 antibody; humanized hG019 (H01L02)) VH: EVQLVQSGAEVKKPGASVKVSCKASGYTFTRNFMHWVRQAPGQGLEWMGWIYPGDGETEYAQKFQGRVTITADTSTSTAYMELSSLRSEDTAVYYCARGVYGGFAGGYFDFWGQGTLVTVSS VL: DIQMTQSPSSLSASVGDRVTITCKASQNIYKNLAWYQQKPGKAPKLLIYDANTLQTGVPSRFSGSGSGSDFTLTISSLQPEDFATYFCQQYYSGWAFGQGTKVEIKR | no binding (tested: about 4, unit not printed on the axis) | no binding (tested: about 4, unit not printed on the axis) | 1.5 | no binding | – | –
4 | human chimeric anti-CDH6 antibody chG019 (antibody, human IgG1, human IgG1 / kappa constant regions; also called chimeric G019 antibody; chG019 antibody) heavy: not shown light: DIQMTQSPSLLSASVGDRVTLNCKASQNIYKNLAWYQQKLGEGPKLLIYDANTLQTGIPSRFSGSGSGSDFTLTISSLQPEDVATYFCQQYYSGWAFGGVTNLELKRAVAAPSVFIFPPSDEQLKSGTASVVCLLNNFYPREAKVQWKVDNALQSGNSQESVTEQDSKDSTYSLSSTLTLSKADYEKHKVYACEVTHQGLSSPVTKSFNRGEC | – | – | – | – | ~0.01 | ~0.01
